Data on four molecules can be found in PMC12557481.

In data set [1] the target is T1, p53_WT (human, UniProt P04637 1-393). Description: EMSA. (In general: A gel shift assay detects complexes by their altered migration in electrophoresis.)
For data set [2], the target named is T1, p53_WT. Description: AUC.
For data set [3], the target named is T1, p53_WT. Description: AUC. This is another data set of the same source.

T1 sequence (P04637 whole entry): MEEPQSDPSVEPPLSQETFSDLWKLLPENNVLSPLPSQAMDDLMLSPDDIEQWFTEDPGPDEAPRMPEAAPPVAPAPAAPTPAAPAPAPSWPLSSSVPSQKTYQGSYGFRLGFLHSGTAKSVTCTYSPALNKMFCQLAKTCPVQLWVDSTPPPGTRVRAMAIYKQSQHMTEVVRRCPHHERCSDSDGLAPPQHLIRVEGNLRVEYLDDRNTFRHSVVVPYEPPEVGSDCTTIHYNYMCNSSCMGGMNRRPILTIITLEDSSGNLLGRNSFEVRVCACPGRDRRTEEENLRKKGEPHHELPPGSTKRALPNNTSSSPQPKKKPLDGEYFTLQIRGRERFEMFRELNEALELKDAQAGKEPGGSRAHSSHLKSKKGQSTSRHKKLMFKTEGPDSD

B1: DNAmdm2 (EMSA) (dsDNA)
DNA 1: GGTCAAGTTGGGACACGTCCGGCGTCGGCTGTCGGAGGAGCTAAGTCCTGACATGTCT
DNA 2: AGACATGTCAGGACTTAGCTCCTCCGACAGCCGACGCCGGACGTGTCCCAACTTGACC
Consider B1, for which, in the data set with p53_WT [1], the binding result is “binds”.

B2: DNAmdm2 (AUC) (dsDNA)
DNA 1: GGTCAAGTTGGGACACGTCCGGCGTCGGCTGTCGGAGGAGCTAAGTCCTGACATGTCT
DNA 2: AGACATGTCAGGACTTAGCTCCTCCGACAGCCGACGCCGGACGTGTCCCAACTTGACC
For B2, the binding result with p53_WT [2] is recorded as “binds”.

B3: DNAp21 (EMSA) (dsDNA)
DNA 1: GAACATGTCCCAACATGTTGGGCGTCGGCTGTCGGAGGAACATGTCCCAACATGTTG
DNA 2: CAACATGTTGGGACATGTTCCTCCGACAGCCGACGCCCAACATGTTGGGACATGTTC
For B3, the binding result with p53_WT [1] is “binds”.

B4: DNAp21 (AUC) (dsDNA)
DNA 1: CTCAACATGTTGGGACATGTTCCT
DNA 2: AGGAACATGTCCCAACATGTTGAG
As for B4, in the data set with p53_WT [3], the binding result was “binds”.
